{
  "source": "paper PMC4604687",
  "about": "“A novel mechano-enzymatic cleavage mechanism underlies transthyretin amyloidogenesis” (EMBO Molecular Medicine, 2015)",
  "binders": {"B1": {"name": "tryptic peptide CPLMVK (peptide)", "peptide": "CPLMVK", "notes": "tryptic peptide seen as adduct on the S52P TTR tetramer; source: trypsin digestion of recombinant S52P TTR"}, "B2": {"name": "residue 49–127 fragment of S52P TTR (domain or fragment)", "chain": "not shown", "notes": "In the hybrid tetramer experiment the fragment comes from the 13C,15N-labelled S52P TTR; source: limited trypsin proteolysis of recombinant S52P TTR (cleavage at Lys48)"}},
  "details_in_all_cases": "both partners purified",
  "key": {"[1]": {"target": "T1, S52P transthyretin (S52P TTR), full-length protomer (residues 1–127) (UniProt P02766 21-147, S52P)", "experiment": "native MS; TTR (S52P with or without limited trypsin proteolysis; wild type) in 200 mM ammonium acetate pH 7.4, nano-electrospray; 13+ charge state of the tetramer selected, acceleration voltage ramped 20 to 70 V (collision-induced dissociation)"}, "[2]": {"target": "T1, S52P transthyretin (S52P TTR), …", "experiment": "native MS; equimolar 50 uM light wild-type and heavy S52P TTR in PBS 3 days at 4°C, then overnight with trypsin at 37°C; each tetramer species isolated and activated (tandem MS, Q-TOFII, 40 V)"}, "[3]": {"target": "wild-type transthyretin (wild-type TTR) (UniProt P02766 21-147)", "experiment": "native MS; equimolar 50 uM light wild-type and heavy S52P TTR in PBS 3 days at 4°C, then overnight with trypsin at 37°C; each tetramer species isolated and activated (tandem MS, Q-TOFII, 40 V)"}},
  "data": [
    {"binder": "B1", "values": [
      {"measurement": "binding result", "setting": "[1]", "result": "binds"}
    ]},
    {"binder": "B2", "values": [
      {"measurement": "binding result", "setting": "[2]", "result": "binds"},
      {"measurement": "binding result", "setting": "[3]", "result": "binds"}
    ]}
  ]
}
